The results in this text go back to patent USRE47770 (dated 2019).

Test [1] deals with T1, CD46 on cells (human colon carcinoma LS174T cells; CHO (dhfr-) cells transfected with CD46 cDNA) (human, UniProt P15529 35-392).
T1 construct: whole, on cells; also called CD46 transfectants; cofactor protein CD46
T1 sequence (looked up): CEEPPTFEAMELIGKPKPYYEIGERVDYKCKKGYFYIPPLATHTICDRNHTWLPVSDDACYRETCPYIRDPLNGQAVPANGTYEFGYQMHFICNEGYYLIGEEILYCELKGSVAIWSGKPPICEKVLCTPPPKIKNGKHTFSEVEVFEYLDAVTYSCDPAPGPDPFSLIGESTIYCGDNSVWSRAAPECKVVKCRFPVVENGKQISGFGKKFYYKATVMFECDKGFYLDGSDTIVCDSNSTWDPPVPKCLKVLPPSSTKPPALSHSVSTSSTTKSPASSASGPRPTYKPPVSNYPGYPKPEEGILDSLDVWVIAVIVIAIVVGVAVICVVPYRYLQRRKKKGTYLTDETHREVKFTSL
The test is described as follows: FACS on CHO cells transfected with EpCAM, CD46 or CD38.

Test [2] deals with T2, CD38 on CHO (dhfr-) cells transfected with CD38 cDNA (UniProt P28907 1-300, limits assumed).
T2 construct: whole, on cells; also called control antigen CD38; negative control (CD38)
Described as above.

For test [3], the target named is T3, EpCAM on CHO (dhfr-) cells transfected with EpCAM cDNA (UniProt P16422 24-314, limits assumed).
T3 construct: whole, on cells; also called EP-CAM homotypic adhesion molecule; EpCAM-transfected cells
T3 sequence (looked up): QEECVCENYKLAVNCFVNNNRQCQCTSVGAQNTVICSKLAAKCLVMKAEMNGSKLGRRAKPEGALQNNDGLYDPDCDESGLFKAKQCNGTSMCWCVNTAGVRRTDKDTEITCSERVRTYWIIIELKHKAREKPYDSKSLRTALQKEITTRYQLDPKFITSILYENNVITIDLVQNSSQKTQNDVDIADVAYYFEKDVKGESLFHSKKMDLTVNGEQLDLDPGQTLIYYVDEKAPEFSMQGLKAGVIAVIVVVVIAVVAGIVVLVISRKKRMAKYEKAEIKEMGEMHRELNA
The test is described as above.

The target of test [4] is T4, Affinity-purified human CD46 from LS174T cells (human, UniProt P15529 35-392, limits assumed).
T4 construct: Coupled (640 RU) to CM5 chips for the BIACORE work; also called purified CD46; membrane cofactor protein CD46
T4 sequence (looked up): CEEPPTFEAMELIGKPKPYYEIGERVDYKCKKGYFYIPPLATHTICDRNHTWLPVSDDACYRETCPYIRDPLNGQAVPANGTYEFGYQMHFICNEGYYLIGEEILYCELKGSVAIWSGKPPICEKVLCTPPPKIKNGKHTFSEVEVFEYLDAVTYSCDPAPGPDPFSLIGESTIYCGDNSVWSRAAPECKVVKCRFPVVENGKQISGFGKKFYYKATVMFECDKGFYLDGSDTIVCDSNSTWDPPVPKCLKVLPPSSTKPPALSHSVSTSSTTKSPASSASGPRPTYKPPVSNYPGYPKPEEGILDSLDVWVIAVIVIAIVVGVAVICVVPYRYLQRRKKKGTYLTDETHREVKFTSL
The test is described as follows: SPR (BIACORE 3000, 37° C.), purified CD46 coupled to CM5 chip, IgG in solution. A general note: Surface plasmon resonance follows binding to a sensor surface in real time, without labels.

B1: UBS54 IgG (antibody, V domains shown)
VH: QVQLVQSGAEVKKPGSSVRVSCKASGGTFSSYAISWVRQAPGQGLEWMGGIIPIFGTANYAQKFQGRVTITADESTSTAYMELSSLRSEDTAVYYCARDPFLHYWGQGTLVTVST
VL: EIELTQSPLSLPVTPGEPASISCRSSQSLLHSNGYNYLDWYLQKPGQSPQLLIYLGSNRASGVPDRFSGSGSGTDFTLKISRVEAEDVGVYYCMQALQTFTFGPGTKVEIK
modifications: amino acid residue 1 is a pyroglutamic acid (remark to Table III)
notes: Tested as full human IgG1 with kappa light chain; also called anti-EpCAM clone UBS54; encoded by pUBS3000Neo
On to B1, for which the binding result in test [1] and in test [2] was “no binding (tested: 20 µg IgG1/ml)” throughout.

B2: 02-237 IgG (antibody, V domains shown)
VH: QVQLVQSGAEVKKPGASVKVSCKASGYTFTSYGISWVRQAPGQGLEWMGWISAYNGNTNYAQKLQGRVTMTTDTSTSTAYMELRSLRSDDTAVYYCARGFPRTSFDSWGQGTLVTVSS
VL: not shown
modifications: amino acid residue 1 is a pyroglutamic acid (remark to Table III)
notes: Tested as human IgG1 (constant domains from pCRU-K01); The N-terminus of its light chain differs slightly from that of UBS54/K53 because of the cloning strategy
A word on the Kd: it is a measure of binding affinity in units of concentration. A low value points to higher affinity. B2: the binding result in test [2] and in test [3] was “no binding (tested: 20 µg IgG1/ml)” throughout. In test [4], this molecule yielded a Kd of 22 nM.

B3: K53 IgG (antibody, V domains shown)
VH: QVQLVQSGAEVKKPGASVKVSCKASGYTFTSYGISWVRQAPGQGLEWMGWISAYNGNTNYAQKLQGRVTMTTDTSTSTAYMELRSLRSDDTAVYYCARGMMRGVFDYWGQGTLVTVST
VL: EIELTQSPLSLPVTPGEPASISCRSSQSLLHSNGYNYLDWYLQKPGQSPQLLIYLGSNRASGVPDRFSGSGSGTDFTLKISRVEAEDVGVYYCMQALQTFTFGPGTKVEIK
modifications: amino acid residue 1 is a pyroglutamic acid (remark to Table III)
notes: also called clone K53; anti-CD46 clone K53
Consider B3, for which the binding result in test [2] and in test [3] was “no binding (tested: 20 µg IgG1/ml)” throughout. Besides, the Kd in test [4] came to 910 nM.
